According to patent US11052053B2, “Nanoparticle comprising a bio-resorbable polyester, a hydrophilic polymer and an acylated human lactoferrin-derived peptide” (Evonik Operations GmbH, priority 2018, dated 2021):
Bridge positions count the residues as written; N and C are the ends. * marks the point of attachment. Palmitoyl = CCCCCCCCCCCCCCCC(=O)*

Assay: hLFF-peptide precipitation test (freeze-thawing)
Assay type: physicochemical
Conditions: 2 mM peptide in 50 mM Hepes buffer pH 8, freezing at −18° C.
Protocol: hLFF-peptides tested for precipitation by one freeze-thawing cycle (freezing at −18° C.) with hLFF peptides dissolved in 50 mM Hepes buffer pH 8 at a concentration of 2 mM.
Solutions of acylated and biacylated human lactoferrin peptides were tested for precipitation in several freeze-thaw cycles.

Substance	precipitation of peptide solution after freeze-thawing
Acetyl-NH-KCFQWQRNMRKVRGPPVSCIKR-CONH2 (Ac-KCFQWQRNMRKVRGPPVSCIKR-NH2; disulfide 2-19; listed as Homo sapiens) [C2-hLFF]	do not precipitate
palmitoyl-NH-KCFQWQRNMRKVRGPPVSCIKR-CONH2 (Palmitoyl-KCFQWQRNMRKVRGPPVSCIKR-NH2; disulfide 2-19) [C16-hLFF]	do not precipitate
